Measured values: paper PMC2132842

Key:
Test in all cases: two-hybrid
GAL4/LEF-1 (297–399) = GAL4/LEF-1 (297–399) (UniProt Q9UJU2)
GAL4/CAS (human) = GAL4/CAS (human) (UniProt P55060)
GAL4/Imp βΔ1/261 (human) = GAL4/Imp βΔ1/261 (human) (UniProt Q14974)
GAL4/Imp βΔ1/261 (human), sequence (Q14974 262-876, stated change not applied): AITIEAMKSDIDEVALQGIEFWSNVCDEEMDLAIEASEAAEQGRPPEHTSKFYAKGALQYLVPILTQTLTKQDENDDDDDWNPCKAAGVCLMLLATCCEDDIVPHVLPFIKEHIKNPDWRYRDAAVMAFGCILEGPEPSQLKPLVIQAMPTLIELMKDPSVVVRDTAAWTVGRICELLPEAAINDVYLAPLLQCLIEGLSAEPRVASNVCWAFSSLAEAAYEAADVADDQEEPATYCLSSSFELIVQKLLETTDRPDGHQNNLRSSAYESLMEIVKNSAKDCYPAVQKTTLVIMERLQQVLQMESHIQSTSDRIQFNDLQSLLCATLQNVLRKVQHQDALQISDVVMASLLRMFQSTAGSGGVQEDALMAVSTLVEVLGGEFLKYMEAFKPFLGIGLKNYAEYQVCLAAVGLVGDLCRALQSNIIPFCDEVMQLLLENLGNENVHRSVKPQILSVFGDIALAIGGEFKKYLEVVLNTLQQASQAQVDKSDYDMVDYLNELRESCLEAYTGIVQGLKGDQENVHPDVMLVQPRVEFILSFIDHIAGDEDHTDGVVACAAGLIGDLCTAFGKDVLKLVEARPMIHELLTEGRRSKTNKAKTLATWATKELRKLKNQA

GAL4/CAS (human), sequence (P55060 whole entry, the tested form may be a part): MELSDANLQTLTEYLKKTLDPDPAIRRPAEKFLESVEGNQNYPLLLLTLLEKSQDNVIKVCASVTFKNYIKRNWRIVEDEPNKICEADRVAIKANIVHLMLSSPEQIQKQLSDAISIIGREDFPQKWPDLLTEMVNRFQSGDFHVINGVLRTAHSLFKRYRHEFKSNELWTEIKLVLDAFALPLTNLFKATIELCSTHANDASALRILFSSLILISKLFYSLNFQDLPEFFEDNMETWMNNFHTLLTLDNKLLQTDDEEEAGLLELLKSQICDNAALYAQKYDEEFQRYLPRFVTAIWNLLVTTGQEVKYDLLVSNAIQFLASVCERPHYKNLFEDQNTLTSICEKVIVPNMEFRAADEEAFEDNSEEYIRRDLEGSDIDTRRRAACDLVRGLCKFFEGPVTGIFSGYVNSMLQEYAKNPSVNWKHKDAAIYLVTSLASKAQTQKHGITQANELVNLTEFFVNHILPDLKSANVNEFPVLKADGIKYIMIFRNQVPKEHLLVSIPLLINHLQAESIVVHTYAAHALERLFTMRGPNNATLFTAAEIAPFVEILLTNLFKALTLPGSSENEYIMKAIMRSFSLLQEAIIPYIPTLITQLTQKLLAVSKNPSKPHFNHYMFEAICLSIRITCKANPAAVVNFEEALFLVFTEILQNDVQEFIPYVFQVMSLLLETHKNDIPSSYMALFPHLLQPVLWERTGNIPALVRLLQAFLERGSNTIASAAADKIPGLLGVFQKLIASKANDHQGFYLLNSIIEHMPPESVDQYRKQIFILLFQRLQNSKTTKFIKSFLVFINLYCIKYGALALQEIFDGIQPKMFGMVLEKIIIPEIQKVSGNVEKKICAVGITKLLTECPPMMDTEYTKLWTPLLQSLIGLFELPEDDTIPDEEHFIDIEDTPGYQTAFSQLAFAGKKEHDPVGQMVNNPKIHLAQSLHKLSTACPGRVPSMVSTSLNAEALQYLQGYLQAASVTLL
GAL4/LEF-1 (297–399), sequence (Q9UJU2 297-399): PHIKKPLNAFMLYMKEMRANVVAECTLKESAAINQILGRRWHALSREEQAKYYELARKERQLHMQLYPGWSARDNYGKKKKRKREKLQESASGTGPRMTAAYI

VP16/Imp α2 (from UniProt P52292 1-529) (natural protein)
β-gal activity (GAL4/LEF-1 (297–399)): 130 mOD/ml | β-gal activity (GAL4/CAS (human)): 434 mOD/ml | β-gal activity (GAL4/Imp βΔ1/261 (human)): 1200 mOD/ml
